This note sets out measurements from patent US20210024903A1 (Pfizer, published 2021).

Test [1] concerns the target Commercial, Control Toxin B wt (List Biologicals) (Clostridium difficile, UniProt P18177 2-2366). Nature of the test: dot blot, non-denaturing.
For test [2], the target named is wild-type C. difficile toxin B (TcdB wt, from List Bio) (C. difficile strain 630, UniProt P18177 2-2366). As to the kind of experiment: dot blot, nondenaturing.
Chain of wild-type C. difficile toxin B (TcdB wt, from List Bio) (P18177 2-2366 limits assumed): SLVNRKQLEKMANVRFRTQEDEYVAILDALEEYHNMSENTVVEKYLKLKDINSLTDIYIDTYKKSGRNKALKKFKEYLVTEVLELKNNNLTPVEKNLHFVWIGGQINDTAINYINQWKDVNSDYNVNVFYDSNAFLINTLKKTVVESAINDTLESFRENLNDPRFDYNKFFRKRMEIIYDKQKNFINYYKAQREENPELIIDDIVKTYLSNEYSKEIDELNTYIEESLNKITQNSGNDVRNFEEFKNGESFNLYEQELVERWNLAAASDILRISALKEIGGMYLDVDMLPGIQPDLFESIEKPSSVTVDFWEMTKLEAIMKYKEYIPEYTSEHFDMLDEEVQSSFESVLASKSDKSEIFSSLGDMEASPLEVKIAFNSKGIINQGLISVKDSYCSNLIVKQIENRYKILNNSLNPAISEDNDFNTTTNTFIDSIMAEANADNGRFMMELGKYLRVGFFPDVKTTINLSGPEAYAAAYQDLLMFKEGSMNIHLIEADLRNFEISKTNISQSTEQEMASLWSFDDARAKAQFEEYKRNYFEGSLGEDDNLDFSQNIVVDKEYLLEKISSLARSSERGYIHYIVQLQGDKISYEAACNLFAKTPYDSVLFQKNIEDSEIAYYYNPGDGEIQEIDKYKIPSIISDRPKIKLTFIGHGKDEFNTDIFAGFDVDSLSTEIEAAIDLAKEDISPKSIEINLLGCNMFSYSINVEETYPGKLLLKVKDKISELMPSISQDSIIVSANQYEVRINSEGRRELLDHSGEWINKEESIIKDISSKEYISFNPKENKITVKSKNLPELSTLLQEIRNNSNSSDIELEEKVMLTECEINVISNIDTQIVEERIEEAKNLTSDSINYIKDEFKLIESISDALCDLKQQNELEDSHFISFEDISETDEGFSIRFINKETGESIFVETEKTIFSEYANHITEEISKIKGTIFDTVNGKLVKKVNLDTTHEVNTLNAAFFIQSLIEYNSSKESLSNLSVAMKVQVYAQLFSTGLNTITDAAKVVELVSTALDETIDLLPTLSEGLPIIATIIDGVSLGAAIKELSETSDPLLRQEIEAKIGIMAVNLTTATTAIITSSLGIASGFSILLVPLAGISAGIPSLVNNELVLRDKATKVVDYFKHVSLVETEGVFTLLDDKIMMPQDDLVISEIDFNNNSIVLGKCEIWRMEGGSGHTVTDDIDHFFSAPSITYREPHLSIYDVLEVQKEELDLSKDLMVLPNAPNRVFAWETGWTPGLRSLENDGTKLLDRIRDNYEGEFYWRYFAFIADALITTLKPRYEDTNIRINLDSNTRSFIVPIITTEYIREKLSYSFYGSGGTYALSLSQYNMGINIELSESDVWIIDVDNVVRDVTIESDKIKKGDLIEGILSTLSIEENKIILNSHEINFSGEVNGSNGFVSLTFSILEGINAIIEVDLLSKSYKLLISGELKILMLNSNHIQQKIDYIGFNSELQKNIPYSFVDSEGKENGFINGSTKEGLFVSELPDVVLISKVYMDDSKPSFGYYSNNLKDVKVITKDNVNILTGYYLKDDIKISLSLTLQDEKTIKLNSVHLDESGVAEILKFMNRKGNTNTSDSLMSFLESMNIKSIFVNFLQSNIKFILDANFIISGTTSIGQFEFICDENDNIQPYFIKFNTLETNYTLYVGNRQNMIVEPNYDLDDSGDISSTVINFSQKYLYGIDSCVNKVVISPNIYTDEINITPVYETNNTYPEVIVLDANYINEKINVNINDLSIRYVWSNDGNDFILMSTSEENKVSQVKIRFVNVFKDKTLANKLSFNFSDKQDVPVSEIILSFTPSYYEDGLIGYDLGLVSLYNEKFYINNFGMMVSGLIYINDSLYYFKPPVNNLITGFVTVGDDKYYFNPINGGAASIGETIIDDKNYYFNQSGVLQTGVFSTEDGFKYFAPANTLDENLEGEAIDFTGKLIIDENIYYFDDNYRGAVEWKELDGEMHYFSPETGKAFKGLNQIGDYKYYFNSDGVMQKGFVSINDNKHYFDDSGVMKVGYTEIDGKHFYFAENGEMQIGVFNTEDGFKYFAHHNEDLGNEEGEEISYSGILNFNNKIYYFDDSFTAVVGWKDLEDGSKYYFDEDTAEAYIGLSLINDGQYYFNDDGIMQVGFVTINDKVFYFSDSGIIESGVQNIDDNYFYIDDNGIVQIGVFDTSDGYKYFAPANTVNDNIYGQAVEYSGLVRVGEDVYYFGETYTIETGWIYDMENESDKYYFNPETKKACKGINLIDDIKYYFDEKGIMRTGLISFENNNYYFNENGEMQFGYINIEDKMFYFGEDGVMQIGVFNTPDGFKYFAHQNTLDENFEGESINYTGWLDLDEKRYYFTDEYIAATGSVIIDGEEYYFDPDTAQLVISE

Chain of Commercial, Control Toxin B wt (List Biologicals) (P18177 2-2366 limits assumed): as above

B1: B9-30 (antibody, V domains shown)
VH: QVQLQQPGAEVVKPGAPVKLSCKASGYPFTNYWMNWVKQRPGRGLEWIGRIDPSNSEIYYNQKFKDKATLTVDKSSSTAYIQLSSLTSEDSAVYYCASGHYGSIFAYWGQGTTLTVSS
VL: VQITQSPSYLAASPGETITINCRASKSISKYLAWYQEKPGKTNKLLIYSGSTLQSGIPSRFSGSRSGTDFTLIISSLEPEDSAMYYCQQHNEYPLTFGAGTKLELKR
As to B1, the binding result in test [1] is “binds”.

B2: B9-30 mAb (antibody, V domains shown)
VH: B1 VH
VL: B1 VL
As for B2, the binding result in test [2] is listed as “binds”.
